From patent US20240084044A1, “Heteromultivalent Nucleic Acid Scaffolds and Uses Thereof” (George Mason University, priority 2022, published 2024)
Each block holds one molecule with its values, some of them ahead of it. Bridges are numbered along the chain shown (N, C = ends). Roman numbers before positions name the chains, in order. [ ]: non-standard residue; d: D form. Lys(N3) = [N-]=[N+]=NCCCC[C@H](N)C(=O)O

Experiments:
[1] = target: ST2/IL-33 binary complex (recombinant FLAG-tagged ST2 extracellular domain with recombinant mature IL-33) (UniProt Q01638); assay: SPR (OpenSPR), FLAG-ST2 captured on anti-FLAG mAb and loaded with 50 nM IL-33, IL1RAcP as analyte, 1:1 fit; native IL-1RAcP as analyte
ST2/IL-33 binary complex = target: T1, ST2/IL-33 binary complex (Homo sapiens, UniProt O95760+Q01638); assay: SPR dissociation constant for the ST2/IL-33 binary complex; format: binding; conditions: SPR, 1:1 fit; read-out: KD to the binary ST2/IL-33 complex
T1 construct: included the extracellular domains, K19-F328 and S21-E359, respectively; the cleaved mature proteins, S112-T270, A117-S269, and R2-S310, respectively; purchased Sino Biologicals ST2 10105-HCCH; IL-33 10368-HNAE; host or cells: ST2: HEK293; IL-33: E. coli
T1 sequence (Q01638 19-328 isoform Q01638-2): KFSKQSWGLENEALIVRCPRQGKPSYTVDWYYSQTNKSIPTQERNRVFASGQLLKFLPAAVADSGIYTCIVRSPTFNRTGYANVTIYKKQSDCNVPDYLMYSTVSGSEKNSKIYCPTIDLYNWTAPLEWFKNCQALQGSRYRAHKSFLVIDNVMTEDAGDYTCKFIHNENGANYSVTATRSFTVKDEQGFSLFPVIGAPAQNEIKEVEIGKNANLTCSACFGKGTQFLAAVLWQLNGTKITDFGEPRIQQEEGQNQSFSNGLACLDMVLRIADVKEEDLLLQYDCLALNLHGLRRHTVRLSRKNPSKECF
T1 sequence (O95760 112-270): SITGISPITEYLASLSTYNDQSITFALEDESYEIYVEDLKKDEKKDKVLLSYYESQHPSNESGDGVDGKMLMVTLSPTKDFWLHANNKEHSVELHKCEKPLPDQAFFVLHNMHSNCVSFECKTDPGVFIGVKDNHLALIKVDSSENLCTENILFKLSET
Excerpt: Recombinant ST2 with truncated FLAG (DDDDK) tag (Cat. #10105-HCCH), His-tagged IL1RAcP (Cat. #10121-H08H), IL-33 (Cat. #10368-HNAE), IL-1β (Cat. #10139-HNAE), and FLAG-tagged SIRT5 (Cat. #19202-H22E) were purchased from Sino Biologicals (Wayne, PA). ST2 and IL1RAcP were expressed in HEK293 cells and included the extracellular domains, K19-F328 and S21-E359, respectively. IL-33, IL-1β, and SIRT5 were expressed in E. coli and included the residue sequence of the cleaved mature proteins, S112-T270, A117-S269, and R2-S310, respectively. Lyophilized ST2, and IL1RAcP were reconstituted in ultrapure (18.5 MΩ) water to a concentration of 0.5 mg/mL (5.6 μM) and stored at −80° C. until use. SIRT5 was reconstituted to 0.2 mg/mL (2.87 μM). To prevent oxidation, IL-33 was reconstituted in 10 mM β-mercaptoethanol (Sigma-Aldrich) to a concentration of 0.1 mg/mL and IL-1β was reconstituted to 0.250 mg/mL. All peptides were purchased from Peptide 2.0 (Chantilly, VA) and designed based on IL1RAcP hotspot residues known to interact with IL-33/ST2 and surrounding residues based on the canonical sequence of IL1RAcP (Uniprot #Q9NPH3). All peptides were modified with acetylated N-terms and amidated C-terms to optimize stability and cyclic peptides cyclized via thioether or disulfide bond. Candidate peptides for the final molecule were also modified with an azido-Lysine and additional N-term alanine or cysteine, to provide the azide group for copper free click chemistry and maintain cyclization. Peptides were stored at −20° C. in lyophilized aliquots of 100 μg or 200 μg and −80° C. after reconstitution in sterile DMSO to a concentration of 10 mM.
SPR experiments were carried out on an OpenSPR instrument (Nicoya). Gold nanoparticle sensor chips (Nicoya) were functionalized by incubation in a solution of ethanol and 10 mM 11-Mercaptoundecanoic acid (MUDA) at RT for a minimum of 48 h, then stored in ethanol at 4° C. until use. Chips were activated with a solution of 200 mM EDC and 50 mM NHS for 3 m at RT. […] Data was analyzed with TraceDrawer software to a 1:1 fit model.

[2] = target: ST2/IL-33 binary complex (recombinant FLAG-tagged ST2 extracellular domain with recombinant mature IL-33) (UniProt Q01638); assay: DSS cross-linking and western blot, 1 µM MSTOP, competitor IL-1RAcP
[3] = target: ST2/IL-33 binary complex (recombinant FLAG-tagged ST2 extracellular domain with recombinant mature IL-33) (UniProt Q01638); assay: DSS cross-linking and western blot, 10 µM MSTOP, competitor IL-1RAcP, normalised to the untreated trimer control
[4] = target: ST2/IL-33 binary complex (recombinant FLAG-tagged ST2 extracellular domain with recombinant mature IL-33) (UniProt Q01638); assay: DSS cross-linking and western blot, 100 nM MSTOP compared with 10 µM free WT peptides, competitor IL-1RAcP
[5] = target: ST2/IL-33 binary complex (recombinant FLAG-tagged ST2 extracellular domain with recombinant mature IL-33) (UniProt Q01638); assay: SPR (OpenSPR), FLAG-ST2 captured on anti-FLAG mAb and loaded with IL-33, MSTOP as analyte, 1:1 fit; MSTOP as analyte
[6] = target: ST2/IL-33 binary complex (recombinant FLAG-tagged ST2 extracellular domain with recombinant mature IL-33) (UniProt Q01638); assay: SPR (OpenSPR), KD compared
[7] = target: T2, IL-33/ST2 on HEK-Blue IL-33 reporter cells (recombinant IL-33 with ST2 stably expressed on the cells), Q01638; assay: cell-based or functional assay
T2 chain 1: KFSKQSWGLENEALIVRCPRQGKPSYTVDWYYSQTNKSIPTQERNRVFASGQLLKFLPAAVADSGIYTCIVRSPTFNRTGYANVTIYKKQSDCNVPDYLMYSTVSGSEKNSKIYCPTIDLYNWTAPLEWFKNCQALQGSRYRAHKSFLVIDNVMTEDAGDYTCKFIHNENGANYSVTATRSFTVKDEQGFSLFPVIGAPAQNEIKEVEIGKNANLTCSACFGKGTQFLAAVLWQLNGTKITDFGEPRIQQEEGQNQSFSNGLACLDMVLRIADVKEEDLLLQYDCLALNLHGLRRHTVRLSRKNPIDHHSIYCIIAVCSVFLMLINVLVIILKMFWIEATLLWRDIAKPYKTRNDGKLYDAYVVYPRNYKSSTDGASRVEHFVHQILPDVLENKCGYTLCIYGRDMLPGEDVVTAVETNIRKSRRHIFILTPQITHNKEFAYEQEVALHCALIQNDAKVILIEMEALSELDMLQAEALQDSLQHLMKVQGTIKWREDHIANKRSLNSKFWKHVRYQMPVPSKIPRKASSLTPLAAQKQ
T2 chain 2: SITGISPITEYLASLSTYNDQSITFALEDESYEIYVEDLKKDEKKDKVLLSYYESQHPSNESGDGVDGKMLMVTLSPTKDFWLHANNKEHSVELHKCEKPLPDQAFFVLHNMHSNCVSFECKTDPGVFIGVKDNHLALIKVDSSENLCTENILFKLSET

[8] = target: ST2/IL-33 binary complex (recombinant FLAG-tagged ST2 extracellular domain with recombinant mature IL-33) (UniProt Q01638); assay: SPR (OpenSPR): FLAG-ST2 captured on anti-FLAG mAb and loaded with IL-33, MSTOP as analyte, 1:1 fit; sensorgrams to about 620 RU. The text gives 195 nM.
[9] = target: ST2/IL-33 binary complex (recombinant FLAG-tagged ST2 extracellular domain with recombinant mature IL-33) (UniProt Q01638); assay: SPR (OpenSPR): FLAG-ST2 captured on anti-FLAG mAb and loaded with IL-33, peptide as analyte, 1:1 fit; five sensorgrams, the highest to about 300 RU
[10] = target: ST2/IL-33 binary complex (recombinant FLAG-tagged ST2 extracellular domain with recombinant mature IL-33) (UniProt Q01638); assay: SPR (OpenSPR): FLAG-ST2 captured on anti-FLAG mAb and loaded with IL-33, peptide as analyte, 1:1 fit; five sensorgrams, the highest to about 350 RU
[11] = target: ST2/IL-33 binary complex (recombinant FLAG-tagged ST2 extracellular domain with recombinant mature IL-33) (UniProt Q01638); assay: SPR (OpenSPR): FLAG-ST2 captured on anti-FLAG mAb and loaded with IL-33, peptide as analyte, 1:1 fit; five sensorgrams, the highest to about 390 RU
ST2 = target: T3, ST2 (Homo sapiens, UniProt Q01638); conditions: reported value; read-out: Kd of ST2/IL-33 binary complex; cited from earlier work
T3 sequence (Q01638 19-556): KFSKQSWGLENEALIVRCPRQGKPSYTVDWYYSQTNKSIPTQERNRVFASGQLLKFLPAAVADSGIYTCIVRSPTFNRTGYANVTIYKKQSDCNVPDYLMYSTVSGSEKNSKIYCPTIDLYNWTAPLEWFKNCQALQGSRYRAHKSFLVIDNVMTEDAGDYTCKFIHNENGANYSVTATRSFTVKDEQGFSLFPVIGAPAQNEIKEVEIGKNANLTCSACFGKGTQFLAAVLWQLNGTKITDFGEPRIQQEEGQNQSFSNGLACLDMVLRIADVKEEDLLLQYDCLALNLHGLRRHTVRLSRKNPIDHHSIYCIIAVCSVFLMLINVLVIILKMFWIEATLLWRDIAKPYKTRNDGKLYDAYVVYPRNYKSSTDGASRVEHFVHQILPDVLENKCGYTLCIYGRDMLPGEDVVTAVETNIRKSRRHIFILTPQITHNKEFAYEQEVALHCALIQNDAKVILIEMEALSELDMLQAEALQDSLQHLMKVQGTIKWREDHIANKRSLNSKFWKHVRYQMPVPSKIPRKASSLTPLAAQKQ

B2: R157 Ac-C-K(N3)-…-NH2 (S-S) (peptide)
peptide: Ac-C[Lys(N3)]EYGIQRITC-NH2
modifications: disulfide 1-11
SMILES: CC[C@H](C)[C@@H]1NC(=O)CNC(=O)[C@H](Cc2ccc(O)cc2)NC(=O)[C@H](CCC(=O)O)NC(=O)[C@H](CCCCN=[N+]=[N-])NC(=O)[C@@H](NC(C)=O)CSSC[C@@H](C(N)=O)NC(=O)[C@H]([C@@H](C)O)NC(=O)[C@H]([C@@H](C)CC)NC(=O)[C@H](CCCNC(=N)N)NC(=O)[C@H](CCC(N)=O)NC1=O
- Kd [9]: 57 µM

B3: K238 Ac-A-K(N3)-…-NH2 (S) (peptide)
peptide: Ac-A[Lys(N3)]VGSPKNAVPPC-NH2
modifications: thioether 1-13
SMILES: CC(=O)N[C@H]1CSC[C@@H](C(N)=O)NC(=O)[C@@H]2CCCN2C(=O)[C@@H]2CCCN2C(=O)[C@H](C(C)C)NC(=O)[C@H](C)NC(=O)[C@H](CC(N)=O)NC(=O)[C@H](CCCCN)NC(=O)[C@@H]2CCCN2C(=O)[C@H](CO)NC(=O)CNC(=O)[C@H](C(C)C)NC(=O)[C@H](CCCCN=[N+]=[N-])NC1=O
- Kd [10]: 105 µM

B4: K343/K346 Ac-C-K(N3)-…-NH2 (S-S) (peptide)
peptide: Ac-C[Lys(N3)]GEVAKAAKVKC-NH2
modifications: disulfide 1-13
SMILES: CC(=O)N[C@H]1CSSC[C@@H](C(N)=O)NC(=O)[C@H](CCCCN)NC(=O)[C@H](C(C)C)NC(=O)[C@H](CCCCN)NC(=O)[C@H](C)NC(=O)[C@H](C)NC(=O)[C@H](CCCCN)NC(=O)[C@H](C)NC(=O)[C@H](C(C)C)NC(=O)[C@H](CCC(=O)O)NC(=O)CNC(=O)[C@H](CCCCN=[N+]=[N-])NC1=O
- Kd [11]: 47 µM

B5: IL-33: recombinant interleukin-33 cytokine, ligand of ST2 (protein, UniProt O95760 1-270, looked up)
Interleukin-33: MKPKMKYSTNKISTAKWKNTASKALCFKLGKSQQKAKEVCPMYFMKLRSGLMIKKEACYFRRETTKRPSLKTGRKHKRHLVLAACQQQSTVECFAFGISGVQKYTRALHDSSITGISPITEYLASLSTYNDQSITFALEDESYEIYVEDLKKDEKKDKVLLSYYESQHPSNESGDGVDGKMLMVTLSPTKDFWLHANNKEHSVELHKCEKPLPDQAFFVLHNMHSNCVSFECKTDPGVFIGVKDNHLALIKVDSSENLCTENILFKLSET
- Kd (ST2): 0.026 nM

The remaining lines, values ahead:

- Kd [1]: 10 µM
Molecule: His-tagged IL1RAcP extracellular domain (S21-E359) (from UniProt Q9NPH3 21-359) (receptor)

- Kd (ST2/IL-33 binary complex): 10 µM
Molecule: IL-1RAcP: recombinant His-tagged IL-1 receptor accessory protein extracellular domain S21-E359

- reduction of trimer formation [2]: 40%
- reduction in trimer formation [3]: 70%
- fold increase in efficiency against the 10 µM WT peptide treatment [4]: 100 fold
- Kd [5]: 0.195 µM
- fold increase in affinity compared to the individual peptides and IL-1RAcP [6]: 100 fold
- IL-33 induced SEAP expression (HEK-Blue IL-33 reporter cells, 1 µM MSTOP) [7]: 40 % reduction
- Kd [8]: 0.127 µM
B1: MSTOP prototype (Multivalent Specific Topology-targeting DNA-Origami Peptide Inhibitor): 3-way junction DNA scaffold carrying three cyclized azidolysine … (designed binder)
peptide 1: Ac-CKEYGIQRITC-NH2
peptide 2: Ac-AKVGSPKNAVPPC-NH2
peptide 3: Ac-CKGEVAKAAKVKC-NH2
modifications: disulfide I:1-I:11, III:1-III:13; thioether II:1-II:13; not fully specified (some residues); also: three peptides held on a 3-way junction DNA scaffold via DBCO staple strands
